According to CN113045659A (NOVOPROTEIN SCIENT INC, dated 2021):
Where a chain is given by its changes, count along the chain named. Each block holds one binder with its values, some of them ahead of it.

Columns and labels:
SK-OV-3细胞上的CD73 = target: T1, SK-OV-3细胞上的CD73 (human, UniProt P21589 27-549); test: flow cytometry on SK-OV-3 cells, Anti-hFC-APC
T1 construct: whole, on cells; Endogenous CD73 of the human CD73-positive cell line SK-OV-3; also called 人CD73阳性细胞; SK-OV-3细胞表面的CD73
T1 sequence (looked up): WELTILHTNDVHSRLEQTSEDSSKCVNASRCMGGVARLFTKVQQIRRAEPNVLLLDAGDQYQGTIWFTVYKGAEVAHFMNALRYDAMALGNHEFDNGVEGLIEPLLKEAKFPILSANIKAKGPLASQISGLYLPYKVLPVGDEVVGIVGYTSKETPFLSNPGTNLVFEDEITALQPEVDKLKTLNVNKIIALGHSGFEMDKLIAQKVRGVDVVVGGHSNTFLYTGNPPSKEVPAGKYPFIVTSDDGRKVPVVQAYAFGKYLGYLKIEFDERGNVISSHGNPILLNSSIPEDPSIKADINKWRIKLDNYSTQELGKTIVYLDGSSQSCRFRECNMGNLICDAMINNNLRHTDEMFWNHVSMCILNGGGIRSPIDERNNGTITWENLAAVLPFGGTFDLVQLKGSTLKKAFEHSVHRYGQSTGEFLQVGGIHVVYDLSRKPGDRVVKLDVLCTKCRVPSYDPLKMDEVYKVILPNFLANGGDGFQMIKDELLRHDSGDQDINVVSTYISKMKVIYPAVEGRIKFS

重组人CD73蛋白 = target: T2, 重组人CD73蛋白 (human, UniProt P21589 27-547, limits assumed); test: ELISA, recombinant human CD73 coated at 3 ug/ml
T2 construct: Coated at 3 ug/ml in the ELISA and used at 5 ug/ml in the enzyme assay; also called rhCD73
T2 sequence (looked up): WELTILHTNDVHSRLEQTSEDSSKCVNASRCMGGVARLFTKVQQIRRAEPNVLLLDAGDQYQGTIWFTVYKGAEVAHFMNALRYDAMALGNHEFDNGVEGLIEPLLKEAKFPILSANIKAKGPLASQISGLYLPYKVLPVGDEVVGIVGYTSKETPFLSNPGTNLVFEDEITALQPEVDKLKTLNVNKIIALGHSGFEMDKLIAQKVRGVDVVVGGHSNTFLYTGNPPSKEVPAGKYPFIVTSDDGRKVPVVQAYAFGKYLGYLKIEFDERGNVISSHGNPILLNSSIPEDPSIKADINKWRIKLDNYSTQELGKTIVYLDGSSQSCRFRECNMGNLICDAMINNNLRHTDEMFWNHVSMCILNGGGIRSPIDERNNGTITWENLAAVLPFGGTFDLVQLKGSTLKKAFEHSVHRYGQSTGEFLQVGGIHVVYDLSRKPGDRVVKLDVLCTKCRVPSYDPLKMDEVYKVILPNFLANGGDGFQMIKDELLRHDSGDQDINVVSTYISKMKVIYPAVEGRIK

B1: 137-4 (antibody, IgG1, V domains shown)
VH: QVQLVQSGAEVKKPGSSVKVSCKASGYSFTGYYIHWVRQAPGQGLEWMGRINPYNGATTYNQNFKDRVTITVDKSTSTAYMELSSLRSEDTAVYYCARFHYGAVDYWGQGTLVTVSS
VL: DIQMTQSPSSLSASVGDRVTITCKASQDINTYLTWYQQKPGKAPKTLIYRANILVDGVPSRFSGSGSGTDFTLTISSLQPEDFATYYCLQYEEFPLTFGGGTKVEIKR
notes: also called 人源化CD73抗体; CQ137人源化抗体; not shown: kappa constant region
binding result (SK-OV-3细胞上的CD73): binds
binding result (重组人CD73蛋白): binds

B2: 137-8 (antibody, IgG1, V domains shown)
VH: B1 VH with V104P, Y106F
VL: B1 VL with E92D, E93Q
notes: as for B1
binding result (SK-OV-3细胞上的CD73): binds
binding result (重组人CD73蛋白): binds

B3: 137-5 (antibody, IgG1, V domains shown)
VH: B1 VH with V104A
VL: B1 VL with E92N
notes: as for B1
binding result (SK-OV-3细胞上的CD73): binds
binding result (重组人CD73蛋白): binds

B4: 137-7 (antibody, IgG1, V domains shown)
VH: B1 VH with V104P, D105N
VL: B1 VL with E92D, E93D
notes: as for B1
binding result (SK-OV-3细胞上的CD73): binds
binding result (重组人CD73蛋白): binds

Continued, values first:

binding result (SK-OV-3细胞上的CD73): binds
binding result (重组人CD73蛋白): binds
B5: 137-9 (antibody, IgG1, V domains shown)
VH: B1 VH with V104P, Y106L
VL: B1 VL with E92D, E93A
notes: as for B1

binding result (SK-OV-3细胞上的CD73): binds
binding result (重组人CD73蛋白): binds
B6: 137-6 (antibody, IgG1, V domains shown)
VH: B1 VH with V104P, D105E
VL: B1 VL with E92A
notes: as for B1
